Data on two molecules can be found in patent US20130071400A1, “LINGO binding molecules and Pharmaceutical Use Thereof” (NOVARTIS AG, priority 2006, published 2013).

The assay relates to freshly isolated rat OPCs. Kind of assay: Primary oligodendrocyte differentiation assay. The assay is classed as cell-based. The settings on record: 100 nM IgG4, 3 days in DMEM/CNTF/T3 medium; three independent experiments (FIG. 5). How it is done: A) Freshly isolated OPCs are treated with 100 nM 4784, 4785 or control IgG4 3207 for 3 days in DMEM/CNTF/T3 medium followed by staining with the anti-04 antibody to visualise immature and mature oligodendrocytes (larger, more diffuse labeling) and the nucleic acid dye DAPI (4′,6-diamidin-2′-phenyl-indol-dihydrochloride) to visualise cell nuclei (smaller circular dots). Oligodendrocytes bearing highly arborised and extended processes and myelin sheet-like structures are considered to have a mature morphology and are indicated with white arrows. Anti-LINGO-1 antibody treatment results in an increase in the proportion of O4-positive cells with a mature morphology whereas treatment with control IgG4 3207 has no effect.
B) The proportion of total (left graph) and mature (right graph) oligodendrocytes is quantified in three independent experiments (1, 2, 3). The left bar graph depicts the percentage of DAPI-stained nuclei associated with O4-staining and the right bar graph depicts the percentage of O4-positive cells with a mature morphology (mean of triplicates+STD). […]
Enriched populations of OPCs are isolated from OFA P3 rats. […] To assess the purity of the cultures with respect to the oligodendrocyte lineage, the percentage of cells that are stained with the anti-04 antibody is quantified after 7 days of culture in SATO medium. […]

B1: IgG4 4785: monoclonal human anti-LINGO-1 IgG4 antibody; VL SEQ ID NO: 6, VH SEQ ID NO: 7 (antibody, V domains shown)
VH: QVQLQQSGPGLVKPSQTLSLTCAISGDSVSDNSAAWSWIRQSPGRGLEWLGLIYLRSKWDNDYAVSVKSRITINPDTSKNQFSLQLNSVTPEDTAVYYCARTGRADEFDVWGQGTLVTVSS
VL: DIVLTQPPSVSGAPGQRVTISCSGSSSNIGNNYVSWYQQLPGTAPKLLISRNSKRPSGVPDRFSGSKSGTSASLAITGLQSEDEADYYCSTYDTFSIVFGGGTKLTVLG
modifications: IgG4; 4785 VH; 4785 VL
As for B1, the “proportion of oligodendrocytes (O4-positive cells) with a mature morphology” value was “significantly increase”.

B2: IgG4 4784: monoclonal human anti-LINGO-1 IgG4 antibody; VL SEQ ID NO: 4, VH SEQ ID NO: 5 (antibody, V domains shown)
VH: QVQLKESGPALVKPTQTLTLTCTFSGFSLSSSGVGVGWIRQPPGKALEWLAHIGSDDDKYYSTSLKTRLTISKDTSKNQVVLTMTNMDPVDTATYYCARNQQYGDGYPGYFDYWGQGTLVTVSS
VL: DIELTQPPSVSVAPGQTARISCSGDNIGNYYVYWYQQKPGQAPVLVIYEDTNRPSGIPERFSGSNSGNTATLTISGTQAEDEADYYCQSYDNLHEQVFGGGTKLTVLG
modifications: IgG4; 4784 VH; 4784 VL
For the molecule B2, the “proportion of oligodendrocytes (O4-positive cells) with a mature morphology” value is “significantly increase”.
